# Source: article PMC4135724 (Nature, 2014)
# B1: Human E-Syt2 (residues 163-634), fragment comprising the SMP, C2A and C2B domains (domain or fragment, UniProt A0FGR8 191-662, looked up)
# chain: DTERAEWLNKTVKHMWPFICQFIEKLFRETIEPAVRGANTHLSTFSFTKVDVGQQPLRINGVKVYTENVDKRQIILDLQISFVGNCEIDLEIKRYFCRAGVKSIQIHGTMRVILEPLIGDMPLVGALSIFFLRKPLLEINWTGLTNLLDVPGLNGLSDTIILDIISNYLVLPNRITVPLVSEVQIAQLRFPVPKGVLRIHFIEAQDLQGKDTYLKGLVKGKSDPYGIIRVGNQIFQSRVIKENLSPKWNEVYEALVYEHPGQELEIELFDEDPDKDDFLGSLMIDLIEVEKERLLDEWFTLDEVPKGKLHLRLEWLTLMPNASNLDKVLTDIKADKDQANDGLSSALLILYLDSARNLPSGKKISSNPNPVVQMSVGHKAQESKIRYKTNEPVWEENFTFFIHNPKRQDLEVEVRDEQHQCSLGNLKVPLSQLLTSEDMTVSQRFQLSNSGPNSTIKMKIALRVLHLEKRER
# Target: the molecule itself
# Test: SEC
protein,measurement,value
B1,stoichiometry N,2
